# Laboratory results reported in US20200392251A1.
# Positions count from the first letter of the chain named.
# B1: anti-BACE1 Fab B1A4 (Fab, V domains shown)
# VH: EVQLVESGGGLVQPGGSLRLSCAASGFNISYSSIHWVRQAPGKGLEWVAYISPSSSYTSYADSVKGRFTISADTSKNTAYLQMNSLRAEDTAVYYCARHYYVSVGSGIDYWGQGTLVTVSS
# VL: DIQMTQSPSSLSASVGDRVTITCRASQSVSSAVAWYQQKPGKAPKLLIYSASSLYSGVPSRFSGSRSGTDFTPTISSLQPEDFATYYCQQASASPYALITFGQGTKVEIKR
# B2: anti-BACE1 Fab B2B5 (Fab, V domains shown)
# VH: EVQLVESGGGLVQPGGSLRLSCAASGFNIYYSYMHWVRQAPGKGLEWVASIYPYYGSTYYADSVKGRFTISADTSKNTAYLQMNSLRAEDTAVYYCARWHGYPPGYSYYSSFSSSGFDYWGQGTLVTVSS
# VL: DIQMTQSPSSLSASVGDRVTITCRASQSVSSAVAWYQQKPGKAPKLLIYSASSLYSGVPSRFSGSRSGTDFTPTISSLQPEDFATYYCQQSYFSYPITFGQGTKVEIKR
# B3: anti-BACE1 Fab B2B2 (Fab, V domains shown)
# VH: EVQLVESGGGLVQPGGSLRLSCAASGFNISSYYMHWVRQAPGKGLEWVASIYSSYGYTYYADSVKGRFTISADTSKNTAYLQMNSLRAEDTAVYYCARYWGYYAWFGSHPWAYGAFDYWGQGTLVTVSS
# VL: DIQMTQSPSSLSASVGDRVTITCRASQSVSSAVAWYQQKPGKAPKLLIYSASSLYSGVPSRFSGSRSGTDFTLTISSLQPEDFATYYCQQYGYYLITFGQGTKVEIKR
# B4: anti-BACE1 Fab B2B3 (Fab, V domains shown)
# VH: EVQLVESGGGLVQPGGSLRLSCAASGFNISYSSIHWVRQAPGKGLEWVAYISSYSSSTYYADSVKGRFTISADTSKNTAYLQMNSLRAEDTAVYYCARSASGIDYWGQGTLVTVSS
# VL: B3 VL with Y91S, Y94A, L95P, I96F
# B5: anti-BACE1 Fab B1B3 (Fab, V domains shown)
# VH: EVQLVESGGGLVQPGGSLRLSCAASGFNISYYSMHWVRQAPGKGLEWVASISPYYGSTYYADSVKGRFTISADTSKNTAYLQMNSLRAEDTAVYYCARERSSCPVGWRDSRFGADGYGLEYWGQGTLVTVSS
# VL: DIQMTQSPSSLSASVGDRVTITCRASQSVSSAVAWYQQKPGKAPKLLIYSASSLYSGVPSRFSGSRSGTDFTLTISSLQPEDFATYYCQQSGHYHSLITFGQGTKVEIKR
# B6: anti-BACE1 IgG B1A4 (antibody, V domains shown)
# VH: B1 VH
# VL: B1 VL
# B7: anti-MMP-12 Fab LH11 (Fab, V domains shown)
# VH: EVQLVESGGGLVQPGGSLRLSCAASGFNLSYYSMHWVRQAPGKGLEWVAYIYPYYGSTYYADSVKGRFTISADTSKNTAYLQMNSLRAEDTAVYYCARFLLSIGKLFVGDGSILHVWL
# VL: B2 VL with P73L, S91A, F93Y, S94G, P96L, I97F
# B8: anti-MMP-12 Fab LG4 (Fab, V domains shown)
# VH: EVQLVESGGGLVQPGGSLRLSCAASGFNLYYSYMHWVRQAPGKGLEWVASISSYYGYTSYADSVKGRFTISADTSKNTAYLQMNSLRAEDTAVYYCARSPIVYYELFMFIDMGAQGWKYGMDYWGQGTLVTVSS
# VL: DIQMTQSPSSLSASVGDRVTITCRASQSVSSAVAWYQQKPGKAPKLLIYSASSLYSGVPSRFSGSRSGTDFTLTISSLQPEDFATYYCQQTFYPFTFGQGTKVEIKR
# B9: anti-MMP-12 Fab LH6 (Fab, V domains shown)
# VH: EVQLVESGGGLVQPGGSLRLSCAASGFNLSYSYMHWVRQAPGKGLEWVASIYPSYGSTYYADSVKGRFTISADTSKNTAYLQMNSLRAEDTAVYYCARDLEESLPKRARTAVSKELESVPYVMDYWGQGTLVTVSS
# VL: B1 VL with P73L, A91S, A93H, S94Y, P95A, Y96S, A97P, L98P
# Tests used:
# [1] = target: human β-secretase 1 (BACE1), extracellular/catalytic domain (human) (UniProt P56817); assay: FRET peptide inhibition assay; KI=IC50/(S/Km+1)
# Chain of human β-secretase 1 (BACE1), extracellular/catalytic domain (human) (P56817 46-457 limits assumed, form in doubt): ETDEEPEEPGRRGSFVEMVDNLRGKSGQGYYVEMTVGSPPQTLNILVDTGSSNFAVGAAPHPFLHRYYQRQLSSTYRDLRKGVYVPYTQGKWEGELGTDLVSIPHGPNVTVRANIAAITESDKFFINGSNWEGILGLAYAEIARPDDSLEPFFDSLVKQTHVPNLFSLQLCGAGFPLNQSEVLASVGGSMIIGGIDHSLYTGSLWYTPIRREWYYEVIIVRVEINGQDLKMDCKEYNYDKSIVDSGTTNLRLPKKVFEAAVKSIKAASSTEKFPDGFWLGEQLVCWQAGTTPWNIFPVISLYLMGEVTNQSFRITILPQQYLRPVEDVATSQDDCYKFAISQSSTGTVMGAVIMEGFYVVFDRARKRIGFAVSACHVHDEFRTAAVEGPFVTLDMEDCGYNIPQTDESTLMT
# [2] = target: human β-secretase 1 (BACE1), extracellular/catalytic domain (human) (UniProt P56817); assay: biolayer interferometry; biotinylated protease on streptavidin sensor, Fab in solution
# [3] = target: human β-secretase 1 (BACE1), extracellular/catalytic domain (human) (UniProt P56817); assay: enzyme inhibition assay with FRET peptide substrate (M-2420), Fab titrated on BACE1 [panel B1A4]
# [4] = target: human β-secretase 1 (BACE1), extracellular/catalytic domain (human) (UniProt P56817); assay: bio-layer interferometry (ForteBio), biotinylated protease on streptavidin biosensor, Fab in solution [panel B1A4]
# [5] = target: human β-secretase 1 (BACE1), extracellular/catalytic domain (human) (UniProt P56817); assay: enzyme inhibition assay with FRET peptide substrate (M-2420), Fab titrated on BACE1 [panel B2B5]
# [6] = target: human β-secretase 1 (BACE1), extracellular/catalytic domain (human) (UniProt P56817); assay: bio-layer interferometry (ForteBio), biotinylated protease on streptavidin biosensor, Fab in solution [panel B2B5]
# [7] = target: human β-secretase 1 (BACE1), extracellular/catalytic domain (human) (UniProt P56817); assay: enzyme inhibition assay with FRET peptide substrate (M-2420), Fab titrated on BACE1 [panel B2B2]
# [8] = target: human β-secretase 1 (BACE1), extracellular/catalytic domain (human) (UniProt P56817); assay: bio-layer interferometry (ForteBio), biotinylated protease on streptavidin biosensor, Fab in solution [panel B2B2]
# [9] = target: human β-secretase 1 (BACE1), extracellular/catalytic domain (human) (UniProt P56817); assay: enzyme inhibition assay with FRET peptide substrate (M-2420), Fab titrated on BACE1 [panel B2B3]
# [10] = target: human β-secretase 1 (BACE1), extracellular/catalytic domain (human) (UniProt P56817); assay: bio-layer interferometry (ForteBio), biotinylated protease on streptavidin biosensor, Fab in solution [panel B2B3]
# [11] = target: human β-secretase 1 (BACE1), extracellular/catalytic domain (human) (UniProt P56817); assay: enzyme inhibition assay with FRET peptide substrate (M-2420), Fab titrated on BACE1 [panel B1B3]
# [12] = target: human β-secretase 1 (BACE1), extracellular/catalytic domain (human) (UniProt P56817); assay: bio-layer interferometry (ForteBio), biotinylated protease on streptavidin biosensor, Fab in solution [panel B1B3]
# [13] = target: human β-secretase 1 (BACE1), extracellular/catalytic domain (human) (UniProt P56817); assay: biolayer interferometry; IgG on protein A sensor, protease in solution
# [14] = target: human β-secretase 1 (BACE1), extracellular/catalytic domain (human) (UniProt P56817); assay: enzyme inhibition assay with FRET peptide substrate, IgG titrated on BACE1 [panel A]
# [15] = target: catalytic domain of MMP-9 (cdMMP-9) (UniProt P14780); assay: bio-layer interferometry
# [16] = target: catalytic domain of MMP-9 (cdMMP-9) (UniProt P14780); assay: FRET peptide inhibition assay
# [17] = target: catalytic domain of MMP-9 (cdMMP-9) (UniProt P14780); assay: bio-layer interferometry; reference cdMMP-12 wt
# [18] = target: catalytic domain of MMP-9 (cdMMP-9) (UniProt P14780); assay: FRET peptide inhibition assay; reference cdMMP-12 mutant D4
binder,measurement,setting,value
B1,Ki,[1],41 nM
same,Kd,[2],21 nM
same,IC50,[3],52 nM
same,koff,[4],0.0086 s⁻¹
same,kon,[4],420000 M⁻¹ s⁻¹
B2,Ki,[1],77 nM
same,Kd,[2],130 nM
same,IC50,[5],97 nM
same,koff,[6],0.024 s⁻¹
same,kon,[6],180000 M⁻¹ s⁻¹
B3,Ki,[1],87 nM
same,Kd,[2],52 nM
same,IC50,[7],110 nM
same,koff,[8],0.0091 s⁻¹
same,kon,[8],180000 M⁻¹ s⁻¹
B4,Ki,[1],100 nM
same,Kd,[2],100 nM
same,IC50,[9],130 nM
same,koff,[10],0.0097 s⁻¹
same,kon,[10],93000 M⁻¹ s⁻¹
B5,Ki,[1],210 nM
same,Kd,[2],31 nM
same,IC50,[11],270 nM
same,koff,[12],0.013 s⁻¹
same,kon,[12],410000 M⁻¹ s⁻¹
B6,Ki,[1],35 nM
same,Kd,[13],16 nM
same,IC50,[14],45 nM
B7,Kd,[15],740 nM
same,Ki,[16],6200 nM
same,fold (KD compared with cdMMP-12 wt),[17],9.9 fold
same,fold (KI compared with cdMMP-12 mutant D4),[18],83 fold
B8,Kd,[15],720 nM
same,fold (KD compared with cdMMP-12 wt),[17],10 fold
B9,Kd,[15],950 nM
same,Ki,[16],1500 nM
same,fold (KD compared with cdMMP-12 wt),[17],2.2 fold
same,fold (KI compared with cdMMP-12 mutant D4),[18],16 fold
